According to paper PMC12637224, “The nonconserved integrin cytoplasmic region determines integrin subtype–specific characteristics by modulating talin1 binding kinetics” (The Journal of Biological Chemistry, 2025):
One block for each molecule: values may come before it.

What was measured:
[1] = molecular target: HaloTag-fused talin1 (HT-talin1) expressed in BAF/LFA1 cells (UniProt P26039); assay: single-molecule binding analysis (HT-Tln1 imaging in BAF/LFA1 cells); settings: ICAM1+PMA, read off a plot
Sequence of HaloTag-fused talin1 (HT-talin1) expressed in BAF/LFA1 cells (P26039 whole entry, looked up, the tested form may be a part): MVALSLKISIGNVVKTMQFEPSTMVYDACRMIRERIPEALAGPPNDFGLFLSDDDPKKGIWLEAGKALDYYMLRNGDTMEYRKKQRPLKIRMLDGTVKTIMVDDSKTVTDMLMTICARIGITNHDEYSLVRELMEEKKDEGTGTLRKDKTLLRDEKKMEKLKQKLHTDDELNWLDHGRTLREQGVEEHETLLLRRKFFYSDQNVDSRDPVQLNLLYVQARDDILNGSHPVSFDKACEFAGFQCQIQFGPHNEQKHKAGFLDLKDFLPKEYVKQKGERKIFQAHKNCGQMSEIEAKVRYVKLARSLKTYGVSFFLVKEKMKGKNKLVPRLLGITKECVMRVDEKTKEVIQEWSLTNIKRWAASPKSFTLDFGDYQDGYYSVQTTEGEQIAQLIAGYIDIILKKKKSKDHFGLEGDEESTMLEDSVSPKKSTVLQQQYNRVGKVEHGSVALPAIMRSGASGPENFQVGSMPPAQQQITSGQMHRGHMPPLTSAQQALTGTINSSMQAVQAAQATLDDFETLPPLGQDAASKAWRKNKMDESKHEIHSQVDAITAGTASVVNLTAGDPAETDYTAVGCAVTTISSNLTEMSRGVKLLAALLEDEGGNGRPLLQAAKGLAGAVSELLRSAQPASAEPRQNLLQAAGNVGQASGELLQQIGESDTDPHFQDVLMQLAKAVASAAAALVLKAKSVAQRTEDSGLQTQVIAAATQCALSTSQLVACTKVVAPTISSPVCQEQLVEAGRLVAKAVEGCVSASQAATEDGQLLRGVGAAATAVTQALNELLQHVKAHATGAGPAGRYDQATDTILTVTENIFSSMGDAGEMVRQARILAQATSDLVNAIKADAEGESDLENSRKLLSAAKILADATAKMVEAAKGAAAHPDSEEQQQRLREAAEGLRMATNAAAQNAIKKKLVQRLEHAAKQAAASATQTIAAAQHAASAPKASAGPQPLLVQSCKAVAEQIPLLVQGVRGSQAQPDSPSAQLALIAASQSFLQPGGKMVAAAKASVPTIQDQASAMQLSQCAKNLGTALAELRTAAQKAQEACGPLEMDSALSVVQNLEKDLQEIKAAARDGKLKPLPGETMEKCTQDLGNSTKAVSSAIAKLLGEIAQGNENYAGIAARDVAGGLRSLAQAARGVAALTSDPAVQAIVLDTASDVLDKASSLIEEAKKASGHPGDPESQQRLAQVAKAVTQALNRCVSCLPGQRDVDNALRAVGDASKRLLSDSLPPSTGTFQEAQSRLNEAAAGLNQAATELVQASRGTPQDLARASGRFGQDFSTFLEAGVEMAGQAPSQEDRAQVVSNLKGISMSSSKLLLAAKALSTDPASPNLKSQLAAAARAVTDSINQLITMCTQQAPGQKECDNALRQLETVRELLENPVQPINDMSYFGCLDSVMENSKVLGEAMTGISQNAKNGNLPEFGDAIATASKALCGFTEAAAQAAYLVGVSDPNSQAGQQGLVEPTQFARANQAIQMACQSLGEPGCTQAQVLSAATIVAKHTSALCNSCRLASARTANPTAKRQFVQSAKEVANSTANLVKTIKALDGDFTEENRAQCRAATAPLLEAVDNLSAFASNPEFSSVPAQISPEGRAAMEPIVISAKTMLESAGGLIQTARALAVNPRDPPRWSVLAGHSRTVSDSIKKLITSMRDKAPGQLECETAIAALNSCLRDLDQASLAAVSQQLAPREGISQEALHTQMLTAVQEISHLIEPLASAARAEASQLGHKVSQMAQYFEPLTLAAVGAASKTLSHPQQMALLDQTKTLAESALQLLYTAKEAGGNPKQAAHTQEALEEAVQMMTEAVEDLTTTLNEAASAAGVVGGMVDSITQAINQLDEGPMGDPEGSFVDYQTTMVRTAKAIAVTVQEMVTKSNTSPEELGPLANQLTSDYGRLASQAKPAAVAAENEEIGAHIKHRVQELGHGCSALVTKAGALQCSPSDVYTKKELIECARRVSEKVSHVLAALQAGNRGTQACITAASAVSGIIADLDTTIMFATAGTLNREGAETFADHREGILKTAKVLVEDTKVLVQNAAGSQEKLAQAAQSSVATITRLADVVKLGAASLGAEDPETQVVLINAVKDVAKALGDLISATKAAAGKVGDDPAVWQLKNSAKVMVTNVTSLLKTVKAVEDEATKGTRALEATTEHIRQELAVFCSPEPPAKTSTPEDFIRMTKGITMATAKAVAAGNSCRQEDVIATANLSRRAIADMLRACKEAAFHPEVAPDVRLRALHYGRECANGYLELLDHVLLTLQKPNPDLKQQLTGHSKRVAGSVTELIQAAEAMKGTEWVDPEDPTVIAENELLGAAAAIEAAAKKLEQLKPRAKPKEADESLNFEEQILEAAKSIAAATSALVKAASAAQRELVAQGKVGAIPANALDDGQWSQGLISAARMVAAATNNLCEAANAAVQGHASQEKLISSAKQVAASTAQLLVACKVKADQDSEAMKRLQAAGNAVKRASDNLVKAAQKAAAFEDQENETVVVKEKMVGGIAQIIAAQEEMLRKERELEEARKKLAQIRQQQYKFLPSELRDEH

[2] = molecular target: T1, HaloTag-fused talin1 (HT-talin1), endogenous knock-in in mouse primary T cells (mouse (endogenous knock-in in mouse T …, UniProt P26039 1-2541, HaloTag labelled with HT SaraFluor 650T Ligand)); assay: Th2 cells, on ICAM1
[3] = molecular target: T1, HaloTag-fused talin1 (HT-talin1), …; assay: naive T cells, on ICAM1
[4] = molecular target: T1, HaloTag-fused talin1 (HT-talin1), …; assay: naive T cells, on ICAM1; remark: listed apart in the source
[5] = molecular target: T1, HaloTag-fused talin1 (HT-talin1), …; assay: activated T cells, on ICAM1
[6] = molecular target: T2, GST-fused talin1 FERM F2–F3 domain; assay: BLI
T2 chain: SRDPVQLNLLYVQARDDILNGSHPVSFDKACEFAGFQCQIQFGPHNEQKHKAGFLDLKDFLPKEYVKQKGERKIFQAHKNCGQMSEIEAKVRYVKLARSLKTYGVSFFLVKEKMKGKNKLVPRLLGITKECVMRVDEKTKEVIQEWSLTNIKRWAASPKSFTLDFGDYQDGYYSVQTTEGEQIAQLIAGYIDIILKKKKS

[7] = molecular target: T2, GST-fused talin1 FERM F2–F3 domain; assay: BLI
[8] = molecular target: T1, HaloTag-fused talin1 (HT-talin1), …; assay: Th2 cells, on PECAM1
[9] = molecular target: T1, HaloTag-fused talin1 (HT-talin1), …; assay: naive T cells, on PECAM1
[10] = molecular target: T3, GST-fused talin1 FERM F2–F3 domain (GST carrier omitted. F2-F3 limits are not given; 206-405 is the usual talin1 F2-F3 construct. Mouse is assumed because the other talin1 constructs in the paper are mouse.); assay: BLI; Octet RH96; GST-talin1 FERM F2–F3 (10 μg/ml) immobilized on Octet GST Biosensors; synthetic integrin CT peptides at 4.9, 14.8, 44.4 and 133 μM as analytes in 25 mM Tris–HCl, 150 mM NaCl, 0.05% Triton X-100, pH 7.5; binding to GST alone subtracted; settings: both partners purified
T3 chain: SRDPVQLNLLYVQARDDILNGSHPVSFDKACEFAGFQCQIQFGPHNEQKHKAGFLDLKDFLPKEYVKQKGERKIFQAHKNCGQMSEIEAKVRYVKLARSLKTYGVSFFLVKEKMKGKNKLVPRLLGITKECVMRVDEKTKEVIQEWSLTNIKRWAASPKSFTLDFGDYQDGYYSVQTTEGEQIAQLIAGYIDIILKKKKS

[11] = β2β7: n = 1453, β2β7-NND: n = 1726, parent: est. 19

- other: binding frequency (events/area) ([1]; β2β7: n = 22, β2β7-NND: n = 14, parent: est. 1.2): 4.7 µm-2
- other: frequency of binding time 1 to 10 s (yellow segment) [1, 11]: 23%
- other: frequency of binding time, top of stacked bar (1 to 10 s plus >10 s) [1, 11]: 24%
Molecule: chimeric LFA1 αLα4/β2β7 (cytoplasmic tails of αL and β2 replaced with those of α4 and β7) (from UniProt P13612;P26010) KQDS to NND (β7 WN linker)

- koff [2]: 0.17 s⁻¹
- koff [3]: 0.288 s⁻¹
- koff [4]: 0.316 s⁻¹
- koff [5]: 0.279 s⁻¹
B1: LFA1 (αL/β2 integrin), endogenous on mouse primary T cells (receptor)
chain 1: YNLDTRPTQSFLAQAGRHFGYQVLQIEDGVVVGAPGEGDNTGGLYHCRTSSEFCQPVSLHGSNHTSKYLGMTLATDAAKGSLLACDPGLSRTCDQNTYLSGLCYLFPQSLEGPMLQNRPAYQECMKGKVDLVFLFDGSQSLDRKDFEKILEFMKDVMRKLSNTSYQFAAVQFSTDCRTEFTFLDYVKQNKNPDVLLGSVQPMFLLTNTFRAINYVVAHVFKEESGARPDATKVLVIITDGEASDKGNISAAHDITRYIIGIGKHFVSVQKQKTLHIFASEPVEEFVKILDTFEKLKDLFTDLQRRIYAIEGTNRQDLTSFNMELSSSGISADLSKGHAVVGAVGAKDWAGGFLDLREDLQGATFVGQEPLTSDVRGGYLGYTVAWMTSRSSRPLLAAGAPRYQHVGQVLLFQAPEAGGRWNQTQKIEGTQIGSYFGGELCSVDLDQDGEAELLLIGAPLFFGEQRGGRVFTYQRRQSLFEMVSELQGDPGYPLGRFGAAITALTDINGDRLTDVAVGAPLEEQGAVYIFNGKPGGLSPQPSQRIQGAQVFPGIRWFGRSIHGVKDLGGDRLADVVVGAEGRVVVLSSRPVVDVVTELSFSPEEIPVHEVECSYSAREEQKHGVKLKACFRIKPLTPQFQGRLLANLSYTLQLDGHRMRSRGLFPDGSHELSGNTSITPDKSCLDFHFHFPICIQDLISPINVSLNFSLLEEEGTPRDQKVGRAMQPILRPSIHTVTKEIPFEKNCGEDKKCEANLTLSSPARSGPLRLMSSASLAVEWTLSNSGEDAYWVRLDLDFPRGLSFRKVEMLQPHSRMPVSCEELTEGSSLLTKTLKCNVSSPIFKAGQEVSLQVMFNTLLNSSWEDFVELNGTVHCENENSSLQEDNSAATHIPVLYPVNILTKEQENSTLYISFTPKGPKTQQVQHVYQVRIQPSAYDHNMPTLEALVGVPWPHSEDPITYTWSVQTDPLVTCHSEDLKRPSSEAEQPCLPGVQFRCPIVFRREILIQVTGTVELSKEIKASSTLSLCSSLSVSFNSSKHFHLYGSKASEAQVLVKVDLIHEKEMLHVYVLSGIGGLVLLFLIFLALYKVGFFKRNLKEKMEADGGVPNGSPPEDTDPLAVPGEETKDMGCLEPLRESDKD
chain 2: QECTKYKVSSCRDCIQSGPGCSWCQKLNFTGPGEPDSLRCDTRAQLLLKGCPADDIMDPRSIANPEFDQRGQRKQLSPQKVTLYLRPGQAAAFNVTFRRAKGYPIDLYYLMDLSYSMLDDLNNVKKLGGDLLQALNEITESGRIGFGSFVDKTVLPFVNTHPEKLRNPCPNKEKACQPPFAFRHVLKLTDNSNQFQTEVGKQLISGNLDAPEGGLDAIMQVAACPEEIGWRNVTRLLVFATDDGFHFAGDGKLGAILTPNDGRCHLEDNMYKRSNEFDYPSVGQLAHKLSESNIQPIFAVTKKMVKTYEKLTEIIPKSAVGELSDDSSNVVQLIKNAYYKLSSRVFLDHSTLPDTLKVTYDSFCSNGASSIGKSRGDCDGVQINNPVTFQVKVMASECIQEQSFVIRALGFTDTVTVQVRPQCECQCRDQSREQSLCGGKGVMECGICRCESGYIGKNCECQTQGRSSQELERNCRKDNSSIVCSGLGDCICGQCVCHTSDVPNKEIFGQYCECDNVNCERYNSQVCGGSDRGSCNCGKCSCKPGYEGSACQCQRSTTGCLNARLVECSGRGHCQCNRCICDEGYQPPMCEDCPSCGSHCRDNHTSCAECLKFDKGPFEKNCSVQCAGMTLQTIPLKKKPCKERDSEGCWITYTLQQKDGRNIYNIHVEDSLECVKGPNVAAIVGGTVVGVVLIGVLLLVIWKALTHLTDLREYRRFEKEKLKSQWNNDNPLFKSATTTVMNPKFAES

- koff [6]: 0.00458 s⁻¹
- Kd [7]: 133 µM
B2: synthetic integrin β3 cytoplasmic tail peptide (peptide)
peptide: KLLITIHDRKEFAKFEEERARAKWDTANNPLYKEATSTFTNITYRGT
modifications: GST carrier omitted. F2-F3 limits are not given; 206-405 is the usual talin1 F2-F3 construct. Mouse is assumed because the other talin1 constructs in the paper are mouse.

- koff [8]: 0.264 s⁻¹
- koff [9]: 0.326 s⁻¹
B3: αV/β3 integrin, endogenous on mouse primary T cells (receptor)
chain 1: FNLDVESPAEYAGPEGSYFGFAVDFFEPSTSSRMFLLVGAPKANTTQPGIVEGGQVLKCECSSSRRCQPIEFDSTGNRDYAKDDPLEFKSHQWFGASVRSKQDKILACAPLYHWRTEMKQEREPVGTCFLQDGTKTVEYAPCRSKNIDADGQGFCQGGFSIDFTKADRVLLGGPGSFYWQGQLISDQVAEIISKYDPNVYSIKYNNQLATRTAQAIFDDSYLGYSVAVGDFNGDGIEDFVSGVPRAARTLGMVYIYDGKNMSSLHNFTGEQMAAYFGFSVAATDINGDDYADVFIGAPLFMDRGSDGKLQEVGQVSVSLQRAVGDFQTTKLNGFEVFARFGSAIAPLGDLDQDGFNDIAIAAPYGGEDKKGLVYIFNGRSTGLNSVPSQILEGQWAAQSMPPSFGYSMKGATDVDRNGYPDLVVGAFGVDRAVLYRARPVVTVNAGLEVYPSILNQDNKICPLPGTALKVSCFNVRFCLKADGKGTLPRKLHFQVELLLDKLKQKGAIRRALFLHNRSPVHSKTMTVFRGGQMQCEELVAYLRDESEFRDKLTPITIFMEYRLDQRTAADATGLQPILNQFTPANVSRQAHILLDCGEDNVCKPKLEVSVNSDQKKIYIGDDNPLTLTVKAQNQGEGAYEAELIVSIPPQADFIGVVRNNEALARLSCAFKTENQTRQVVCDLGNPMKAGTQLLAGLRFSVHQQSEMDTSVKFDLKIQSSNSFDNVSPVVSYKVDLAVLAAVEIRGVSSPDHIFLPIPNWEYKENPETEEDVGPIVQHIYELRNNGPSSFSKAILNLQWPYKYNNNTLLYILHYDIDGPMNCTADTEINPLRIKTPEKNDTAAAGQGERNHLITKRDLTLREGDVHTLGCGIAKCLQITCQVGRLDRGKSAILYVKSLLWTETFMNKENQNHSYSLKSSASFNIIEFPYKNLPIEDLFNSTLVTTNITWGIQPAPMPVPVWVIILAVLAGLLLLAVLVFVMYRMGFFKRVRPPQEEQEREQLQPHENGEGNSET
chain 2: ESNICTTRGVNSCQQCLAVSPVCAWCSDETLSQGSPRCNLKENLLKDNCAPESIEFPVSEAQILEARPLSSKGSGSSAQITQVSPQRIALRLRPDDSKIFSLQVRQVEDYPVDIYYLMDLSFSMKDDLSSIQTLGTKLASQMRKLTSNLRIGFGAFVDKPVSPYMYISPPQAIKNPCYNMKNACLPMFGYKHVLTLTDQVSRFNEEVKKQSVSRNRDAPEGGFDAIMQATVCDEKIGWRNDASHLLVFTTDAKTHIALDGRLAGIVLPNDGHCHIGTDNHYSASTTMDYPSLGLMTEKLSQKNINLIFAVTENVVSLYQNYSELIPGTTVGVLSDDSSNVLQLIVDAYGKIRSKVELEVRDLPEELSLSFNATCLNNEVIPGLKSCVGLKIGDTVSFSIEAKVRGCPQEKEQSFTIKPVGFKDSLTVQVTFDCDCACQAFAQPSSPRCNNGNGTFECGVCRCDQGWLGSMCECSEEDYRPSQQEECSPKEGQPICSQRGECLCGQCVCHSSDFGKITGKYCECDDFSCVRYKGEMCSGHGQCNCGDCVCDSDWTGYYCNCTTRTDTCMSTNGLLCSGRGNCECGSCVCVQPGSYGDTCEKCPTCPDACSFKKECVECKKFNRGTLHEENTCSRYCRDDIEQVKELTDTGKNAVNCTYKNEDDCVVRFQYYEDTSGRAVLYVVEEPECPKGPDILVVLLSVMGAILLIGLATLLIWKLLITIHDRKEFAKFEEERARAKWDTANNPLYKEATSTFTNITYRGT

- koff [6]: 0.00398 s⁻¹
- Kd [7]: 43.5 µM
B4: synthetic integrin β2 cytoplasmic tail peptide (peptide)
peptide: KALIHLSDLREYRRFEKEKLKSQWNNDNPLFKSATTTVMNPKFAES
modifications: GST carrier omitted. F2-F3 limits are not given; 206-405 is the usual talin1 F2-F3 construct. Mouse is assumed because the other talin1 constructs in the paper are mouse.

- fold higher affinity than m25 (β7 peptide) [10]: 3 fold
- fold higher affinity than m26 (β3 peptide) [10]: 3 fold
- fold higher affinity than m27 (β1 peptide) [10]: 2 fold
B5: synthetic integrin β2 cytoplasmic tail peptide (peptide, UniProt P05107 724-769, looked up)
peptide: KALIHLSDLREYRRFEKEKLKSQWNNDNPLFKSATTTVMNPKFAES
notes: integrin β2 cytoplasmic tail peptide; also called β2 integrin; β2-CT; source: synthetic peptide (GenScript)

- koff [6]: 0.00509 s⁻¹
- Kd [7]: 90.2 µM
B6: synthetic integrin β1 cytoplasmic tail peptide (peptide)
peptide: KLLMIIHDRREFAKFEKEKMNAKWDTGENPIYKSAVTTVVNPKYEGK
modifications: GST carrier omitted. F2-F3 limits are not given; 206-405 is the usual talin1 F2-F3 construct. Mouse is assumed because the other talin1 constructs in the paper are mouse.

- koff [6]: 0.00597 s⁻¹
- Kd [7]: 124 µM
B7: synthetic integrin β7 cytoplasmic tail peptide (peptide)
peptide: RLSVEIYDRREYSRFEKEQQQLNWKQDSNPLYKSAITTTINPRFQEADSPTL
modifications: GST carrier omitted. F2-F3 limits are not given; 206-405 is the usual talin1 F2-F3 construct. Mouse is assumed because the other talin1 constructs in the paper are mouse.
